Experiments:
[1] = molecular target: human glucagon-like peptide 1 receptor (GLP-1R) (human, UniProt P43220 24-463); assay: cell-based or functional assay
[2] = molecular target: human glucagon receptor (Glucagon-R) (human, UniProt P47871 26-477); assay: cell-based or functional assay
Sequence of human glucagon receptor (Glucagon-R) (P47871 26-477): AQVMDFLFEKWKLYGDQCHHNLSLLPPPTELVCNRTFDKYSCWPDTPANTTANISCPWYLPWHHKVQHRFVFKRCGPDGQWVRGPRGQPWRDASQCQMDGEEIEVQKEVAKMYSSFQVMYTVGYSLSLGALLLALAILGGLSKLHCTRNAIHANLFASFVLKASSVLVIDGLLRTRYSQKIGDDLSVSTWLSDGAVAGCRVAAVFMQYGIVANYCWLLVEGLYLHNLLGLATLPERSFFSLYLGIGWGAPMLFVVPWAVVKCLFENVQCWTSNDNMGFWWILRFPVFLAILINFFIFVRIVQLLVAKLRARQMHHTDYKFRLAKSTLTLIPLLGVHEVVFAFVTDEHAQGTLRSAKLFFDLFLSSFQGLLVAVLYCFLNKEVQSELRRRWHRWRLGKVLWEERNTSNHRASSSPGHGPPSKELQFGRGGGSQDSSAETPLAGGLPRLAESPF

Binder	EC50 values for cAMP generation in HEK293 cells expressing GLP-1 receptor [1]	EC50 values for cAMP generation in HEK293 cells expressing Glucagon receptor [2]
HSHGTFTSDYSKYLDEKRAKDFIEWLLSA (HELM PEPTIDE1{H.S.H.G.T.F.T.S.D.Y.S.K.Y.L.D.E.K.R.A.K.D.F.I.E.W.L.L.S.A.[am]}|PEPTIDE2{[CCCCCCCCCCCCCCCC(=O)[*:2]].[gGlu]}$PEPTIDE1,PEPTIDE2,17:R3-2:R2$$$V2.0; SMILES CCCCCCCCCCCCCCCC(=O)N[C@@H](CCC(=O)NCCCC[C@H](NC(=O)[C@H](CCC(=O)O)NC(=O)[C@H](CC(=O)O)NC(=O)[C@H](CC(C)C)NC(=O)[C@H](Cc1ccc(O)cc1)NC(=O)[C@H](CCCCN)NC(=O)[C@H](CO)NC(=O)[C@H](Cc1ccc(O)cc1)NC(=O)[C@H](CC(=O)O)NC(=O)[C@H](CO)NC(=O)[C@@H](NC(=O)[C@H](Cc1ccccc1)NC(=O)[C@@H](NC(=O)CNC(=O)[C@H](Cc1c[nH]cn1)NC(=O)[C@H](CO)NC(=O)[C@@H](N)Cc1c[nH]cn1)[C@@H](C)O)[C@@H](C)O)C(=O)N[C@@H](CCCNC(=N)N)C(=O)N[C@@H](C)C(=O)N[C@@H](CCCCN)C(=O)N[C@@H](CC(=O)O)C(=O)N[C@@H](Cc1ccccc1)C(=O)N[C@H](C(=O)N[C@@H](CCC(=O)O)C(=O)N[C@@H](Cc1c[nH]c2ccccc12)C(=O)N[C@@H](CC(C)C)C(=O)N[C@@H](CC(C)C)C(=O)N[C@@H](CO)C(=O)N[C@@H](C)C(N)=O)[C@@H](C)CC)C(=O)O) [H-HSHGTFTSDYSKYLDE-K(Hexadecanoyl-isoGlu)-RAKDFIEWLLSA-NH2 [Compound 18]]	90 pM	90 pM
HXQGTFTSDYSRYLDEKRAKDFIEWLLSA (HELM PEPTIDE1{H.[Aib].Q.G.T.F.T.S.D.Y.S.R.Y.L.D.E.K.R.A.K.D.F.I.E.W.L.L.S.A.[am]}|PEPTIDE2{[CCCCCCCCCCCCCCCC(=O)[*:2]].[gGlu]}$PEPTIDE1,PEPTIDE2,17:R3-2:R2$$$V2.0; SMILES CCCCCCCCCCCCCCCC(=O)N[C@@H](CCC(=O)NCCCC[C@H](NC(=O)[C@H](CCC(=O)O)NC(=O)[C@H](CC(=O)O)NC(=O)[C@H](CC(C)C)NC(=O)[C@H](Cc1ccc(O)cc1)NC(=O)[C@H](CCCNC(=N)N)NC(=O)[C@H](CO)NC(=O)[C@H](Cc1ccc(O)cc1)NC(=O)[C@H](CC(=O)O)NC(=O)[C@H](CO)NC(=O)[C@@H](NC(=O)[C@H](Cc1ccccc1)NC(=O)[C@@H](NC(=O)CNC(=O)[C@H](CCC(N)=O)NC(=O)C(C)(C)NC(=O)[C@@H](N)Cc1c[nH]cn1)[C@@H](C)O)[C@@H](C)O)C(=O)N[C@@H](CCCNC(=N)N)C(=O)N[C@@H](C)C(=O)N[C@@H](CCCCN)C(=O)N[C@@H](CC(=O)O)C(=O)N[C@@H](Cc1ccccc1)C(=O)N[C@H](C(=O)N[C@@H](CCC(=O)O)C(=O)N[C@@H](Cc1c[nH]c2ccccc12)C(=O)N[C@@H](CC(C)C)C(=O)N[C@@H](CC(C)C)C(=O)N[C@@H](CO)C(=O)N[C@@H](C)C(N)=O)[C@@H](C)CC)C(=O)O) [H-H-Aib-QGTFTSDYSRYLDE-K(Hexadecanoyl-isoGlu)-RAKDFIEWLLSA-NH2 [Compound 16]]	60 pM	110 pM
HSPGTFTSDYSKYLDEKRAKDFIEWLLSA (HELM PEPTIDE1{H.[dS].P.G.T.F.T.S.D.Y.S.K.Y.L.D.E.K.R.A.K.D.F.I.E.W.L.L.S.A.[am]}|PEPTIDE2{[CCCCCCCCCCCCCCCC(=O)[*:2]].[gGlu]}$PEPTIDE1,PEPTIDE2,17:R3-2:R2$$$V2.0; SMILES CCCCCCCCCCCCCCCC(=O)N[C@@H](CCC(=O)NCCCC[C@H](NC(=O)[C@H](CCC(=O)O)NC(=O)[C@H](CC(=O)O)NC(=O)[C@H](CC(C)C)NC(=O)[C@H](Cc1ccc(O)cc1)NC(=O)[C@H](CCCCN)NC(=O)[C@H](CO)NC(=O)[C@H](Cc1ccc(O)cc1)NC(=O)[C@H](CC(=O)O)NC(=O)[C@H](CO)NC(=O)[C@@H](NC(=O)[C@H](Cc1ccccc1)NC(=O)[C@@H](NC(=O)CNC(=O)[C@@H]1CCCN1C(=O)[C@@H](CO)NC(=O)[C@@H](N)Cc1c[nH]cn1)[C@@H](C)O)[C@@H](C)O)C(=O)N[C@@H](CCCNC(=N)N)C(=O)N[C@@H](C)C(=O)N[C@@H](CCCCN)C(=O)N[C@@H](CC(=O)O)C(=O)N[C@@H](Cc1ccccc1)C(=O)N[C@H](C(=O)N[C@@H](CCC(=O)O)C(=O)N[C@@H](Cc1c[nH]c2ccccc12)C(=O)N[C@@H](CC(C)C)C(=O)N[C@@H](CC(C)C)C(=O)N[C@@H](CO)C(=O)N[C@@H](C)C(N)=O)[C@@H](C)CC)C(=O)O) [H-H-DSer-PGTFTSDYSKYLDE-K(Hexadecanoyl-isoGlu)-RAKDFIEWLLSA-NH2 [Compound 21]]	80 pM	210 pM
HXPGTFTSDYSRYLDEKRARDFIEWLLSA (HELM PEPTIDE1{H.[Aib].P.G.T.F.T.S.D.Y.S.R.Y.L.D.E.K.R.A.R.D.F.I.E.W.L.L.S.A.[am]}|PEPTIDE2{[CCCCCCCCCCCCCCCC(=O)[*:2]].[gGlu]}$PEPTIDE1,PEPTIDE2,17:R3-2:R2$$$V2.0; SMILES CCCCCCCCCCCCCCCC(=O)N[C@@H](CCC(=O)NCCCC[C@H](NC(=O)[C@H](CCC(=O)O)NC(=O)[C@H](CC(=O)O)NC(=O)[C@H](CC(C)C)NC(=O)[C@H](Cc1ccc(O)cc1)NC(=O)[C@H](CCCNC(=N)N)NC(=O)[C@H](CO)NC(=O)[C@H](Cc1ccc(O)cc1)NC(=O)[C@H](CC(=O)O)NC(=O)[C@H](CO)NC(=O)[C@@H](NC(=O)[C@H](Cc1ccccc1)NC(=O)[C@@H](NC(=O)CNC(=O)[C@@H]1CCCN1C(=O)C(C)(C)NC(=O)[C@@H](N)Cc1c[nH]cn1)[C@@H](C)O)[C@@H](C)O)C(=O)N[C@@H](CCCNC(=N)N)C(=O)N[C@@H](C)C(=O)N[C@@H](CCCNC(=N)N)C(=O)N[C@@H](CC(=O)O)C(=O)N[C@@H](Cc1ccccc1)C(=O)N[C@H](C(=O)N[C@@H](CCC(=O)O)C(=O)N[C@@H](Cc1c[nH]c2ccccc12)C(=O)N[C@@H](CC(C)C)C(=O)N[C@@H](CC(C)C)C(=O)N[C@@H](CO)C(=O)N[C@@H](C)C(N)=O)[C@@H](C)CC)C(=O)O) [H-H-Aib-PGTFTSDYSRYLDE-K(Hexadecanoyl-isoGlu)-RARDFIEWLLSA-NH2 [Compound 15]]	60 pM	420 pM
HSQGTFTSDYSRYLDEKRARDFIEWLLSA (HELM PEPTIDE1{H.S.Q.G.T.F.T.S.D.Y.S.R.Y.L.D.E.K.R.A.R.D.F.I.E.W.L.L.S.A.[am]}|PEPTIDE2{[CCCCCCCCCCCCCCCC(=O)[*:2]].[gGlu]}$PEPTIDE1,PEPTIDE2,17:R3-2:R2$$$V2.0; SMILES CCCCCCCCCCCCCCCC(=O)N[C@@H](CCC(=O)NCCCC[C@H](NC(=O)[C@H](CCC(=O)O)NC(=O)[C@H](CC(=O)O)NC(=O)[C@H](CC(C)C)NC(=O)[C@H](Cc1ccc(O)cc1)NC(=O)[C@H](CCCNC(=N)N)NC(=O)[C@H](CO)NC(=O)[C@H](Cc1ccc(O)cc1)NC(=O)[C@H](CC(=O)O)NC(=O)[C@H](CO)NC(=O)[C@@H](NC(=O)[C@H](Cc1ccccc1)NC(=O)[C@@H](NC(=O)CNC(=O)[C@H](CCC(N)=O)NC(=O)[C@H](CO)NC(=O)[C@@H](N)Cc1c[nH]cn1)[C@@H](C)O)[C@@H](C)O)C(=O)N[C@@H](CCCNC(=N)N)C(=O)N[C@@H](C)C(=O)N[C@@H](CCCNC(=N)N)C(=O)N[C@@H](CC(=O)O)C(=O)N[C@@H](Cc1ccccc1)C(=O)N[C@H](C(=O)N[C@@H](CCC(=O)O)C(=O)N[C@@H](Cc1c[nH]c2ccccc12)C(=O)N[C@@H](CC(C)C)C(=O)N[C@@H](CC(C)C)C(=O)N[C@@H](CO)C(=O)N[C@@H](C)C(N)=O)[C@@H](C)CC)C(=O)O) [H-HSQGTFTSDYSRYLDE-K(Hexadecanoyl-isoGlu)-RARDFIEWLLSA-NH2 [Compound 7]]	60 pM	60 pM
HXQGTFTSDYSKYLDERRAKDFIEWLLSA (HELM PEPTIDE1{H.[Aib].Q.G.T.F.T.S.D.Y.S.K.Y.L.D.E.R.R.A.K.D.F.I.E.W.L.L.S.A.[am]}|PEPTIDE2{[CCCCCCCCCCCCCCCC(=O)[*:2]].[gGlu]}$PEPTIDE1,PEPTIDE2,20:R3-2:R2$$$V2.0; SMILES CCCCCCCCCCCCCCCC(=O)N[C@@H](CCC(=O)NCCCC[C@H](NC(=O)[C@H](C)NC(=O)[C@H](CCCNC(=N)N)NC(=O)[C@H](CCCNC(=N)N)NC(=O)[C@H](CCC(=O)O)NC(=O)[C@H](CC(=O)O)NC(=O)[C@H](CC(C)C)NC(=O)[C@H](Cc1ccc(O)cc1)NC(=O)[C@H](CCCCN)NC(=O)[C@H](CO)NC(=O)[C@H](Cc1ccc(O)cc1)NC(=O)[C@H](CC(=O)O)NC(=O)[C@H](CO)NC(=O)[C@@H](NC(=O)[C@H](Cc1ccccc1)NC(=O)[C@@H](NC(=O)CNC(=O)[C@H](CCC(N)=O)NC(=O)C(C)(C)NC(=O)[C@@H](N)Cc1c[nH]cn1)[C@@H](C)O)[C@@H](C)O)C(=O)N[C@@H](CC(=O)O)C(=O)N[C@@H](Cc1ccccc1)C(=O)N[C@H](C(=O)N[C@@H](CCC(=O)O)C(=O)N[C@@H](Cc1c[nH]c2ccccc12)C(=O)N[C@@H](CC(C)C)C(=O)N[C@@H](CC(C)C)C(=O)N[C@@H](CO)C(=O)N[C@@H](C)C(N)=O)[C@@H](C)CC)C(=O)O) [H-H-Aib-QGTFTSDYSKYLDERRA-K(Hexadecanoyl-isoGlu)-DFIEWLLSA-NH2 [Compound 2]]	360 pM	350 pM
HSQGTFTSDYSKYLDERRAKDFIKWLLSA (HELM PEPTIDE1{H.S.Q.G.T.F.T.S.D.Y.S.K.Y.L.D.E.R.R.A.K.D.F.I.K.W.L.L.S.A.[am]}|PEPTIDE2{[CCCCCCCCCCCCCCCC(=O)[*:2]].[gGlu]}$PEPTIDE1,PEPTIDE2,24:R3-2:R2$$$V2.0; SMILES CCCCCCCCCCCCCCCC(=O)N[C@@H](CCC(=O)NCCCC[C@H](NC(=O)[C@@H](NC(=O)[C@H](Cc1ccccc1)NC(=O)[C@H](CC(=O)O)NC(=O)[C@H](CCCCN)NC(=O)[C@H](C)NC(=O)[C@H](CCCNC(=N)N)NC(=O)[C@H](CCCNC(=N)N)NC(=O)[C@H](CCC(=O)O)NC(=O)[C@H](CC(=O)O)NC(=O)[C@H](CC(C)C)NC(=O)[C@H](Cc1ccc(O)cc1)NC(=O)[C@H](CCCCN)NC(=O)[C@H](CO)NC(=O)[C@H](Cc1ccc(O)cc1)NC(=O)[C@H](CC(=O)O)NC(=O)[C@H](CO)NC(=O)[C@@H](NC(=O)[C@H](Cc1ccccc1)NC(=O)[C@@H](NC(=O)CNC(=O)[C@H](CCC(N)=O)NC(=O)[C@H](CO)NC(=O)[C@@H](N)Cc1c[nH]cn1)[C@@H](C)O)[C@@H](C)O)[C@@H](C)CC)C(=O)N[C@@H](Cc1c[nH]c2ccccc12)C(=O)N[C@@H](CC(C)C)C(=O)N[C@@H](CC(C)C)C(=O)N[C@@H](CO)C(=O)N[C@@H](C)C(N)=O)C(=O)O) [H-HSQGTFTSDYSKYLDERRAKDFI-K(Hexadecanoyl-isoGlu)-WLLSA-NH2 [Compound 4]]	1310 pM	790 pM

— patent US20130316941A1 (Boehringer Ingelheim, published 2013)
